We go through four molecules from patent US6984624B2, “Composition containing an iron complexing protein and a precursor of nitrogen monoxide metabolism and/or a chemical donor of nitrogen monoxide and uses thereof” (Isocell S.A., priority 2000, dated 2006).

Assay [1] has as its system Intestinal epithelial cells of the Caco-2 line. The experiment in a line: Iron fixation at the cellular level over 16 hours of culture (Example 1, FIG. 1). It is filed as cell-based, human. The conditions noted are these: Caco-2 cells, no L-arginine. As to the method:
Native bovine Lf was treated at pH 1 so as to substitute the unlabeled iron that it contained in the natural state with ^59Fe labeled iron.
The Lf-^59Fe was then purified in order to remove the nonfixed labeled iron, by gel filtration on a column of SEPHADEX® G-75.
(§1) Intestinal epithelial cells of the Caco-2 line derived from a colon cancer were incubated in a proportion of 2×10^6 cells per ml in an RPMI 1640 medium buffered at pH 7.4, in the presence of 25 mmolar of Hepes, containing 15% (v/v) of fetal calf serum, 2 mmol/l of L-glutamine and 1% (v/v) of a solution of streptomycin-penicillin, sold by the company Gibco.
(§2) Iron fixation at the cellular level was then initiated by adding Lf-^59Fe and/or labeled iron and/or L-arginine.
(§3) One of the cell culture tubes received none of these three constituents, so as to act as a control.
The distribution of the constituents, and also the concentrations at which they were used, appear in Table I below:
The cells were then incubated for a period of 16 hours in Eppendorf tubes kept stirring for the final 2 hours of the culture period. Throughout the incubation period, the amount of cellular iron was measured by centrifugation pellet of the cells a first time after 30 minutes (t=0.5), then after one hour (t=1), and then every hour (t=2 to t=16), using a device for measuring the radioactivity.

The test system is the same in assay [2]. The experiment in a line: Degree of iron fixation at the cellular level as a function of concentrations (Example 3). It is filed as cell-based, human. The conditions noted are these: Caco-2 cells, after 72 hours of incubation; tube contents per Table III (mg/ml); Control = 1. As to the method: as §1
Twelve tubes of epithelial cell cultures were prepared according to the conditions described above in Example 1.
as §2, §3
The distribution of the constituents, and also the concentrations at which they were used, appear in Table III below:
The degree of cellular fixation of iron was measured after 72 hours of incubation using a device for measuring the radioactivity.

B1: Lf-^59Fe: Native bovine lactoferrin treated at pH 1 and saturated with ^59Fe labeled iron (85% to 100% saturation) (protein, UniProt P24627 20-708, looked up)
Lactotransferrin: APRKNVRWCTISQPEWFKCRRWQWRMKKLGAPSITCVRRAFALECIRAIAEKKADAVTLDGGMVFEAGRDPYKLRPVAAEIYGTKESPQTHYYAVAVVKKGSNFQLDQLQGRKSCHTGLGRSAGWIIPMGILRPYLSWTESLEPLQGAVAKFFSASCVPCIDRQAYPNLCQLCKGEGENQCACSSREPYFGYSGAFKCLQDGAGDVAFVKETTVFENLPEKADRDQYELLCLNNSRAPVDAFKECHLAQVPSHAVVARSVDGKEDLIWKLLSKAQEKFGKNKSRSFQLFGSPPGQRDLLFKDSALGFLRIPSKVDSALYLGSRYLTTLKNLRETAEEVKARYTRVVWCAVGPEEQKKCQQWSQQSGQNVTCATASTTDDCIVLVLKGEADALNLDGGYIYTAGKCGLVPVLAENRKSSKHSSLDCVLRPTEGYLAVAVVKKANEGLTWNSLKDKKSCHTAVDRTAGWNIPMGLIVNQTGSCAFDEFFSQSCAPGADPKSRLCALCAGDDQGLDKCVPNSKEKYYGYTGAFRCLAEDVGDVAFVKNDTVWENTNGESTADWAKNLNREDFRLLCLDGTRKPVTEAQSCHLAVAPNHAVVSRSDRAAHVKQVLLHQQALFGKNGKNCPDKFCLFKSETKNLLFNDNTECLAKLGGRPTYEEYLGTEYVTAIANLKKCSTSPLLEACAFLTR
modifications: 59Fe iron-saturated
Turning to B1, the “Persistence of the iron fixed in the cell” value in assay [1] was “only transiently fixed”.

B2: Cell culture tube 3: Table III tube: Lf-^59Fe 0.01 mg/ml alone (protein, UniProt P24627 20-708, looked up)
Lactotransferrin: B1 Lactotransferrin
modifications: 59Fe iron-saturated
B2: the “Degree of iron fixation in the cells (cpm ^59Fe)” value (“Degree of iron fixation” for short) in assay [2] turned out to be 1.1 ± 0.1 cpm ^59Fe.

B3: Cell culture tube 2: Table III tube: Lf-^59Fe 0.1 mg/ml alone (protein, UniProt P24627 20-708, looked up)
Lactotransferrin: B1 Lactotransferrin
modifications: 59Fe iron-saturated
As to B3, the “Degree of iron fixation” value in assay [2] turned out to be 1.0 ± 0.2 cpm ^59Fe.

B4: Cell culture tube 1: Table III tube: Lf-^59Fe 1 mg/ml alone (protein, UniProt P24627 20-708, looked up)
Lactotransferrin: B1 Lactotransferrin
modifications: 59Fe iron-saturated
B4: the “Degree of iron fixation” value in assay [2] was found to be 1.2 ± 0.1 cpm ^59Fe.
